The target of assay [1] is E1E2 Y443A (H77 alanine-scanning library clone) (hepatitis C virus genotype 1a, strain H77). As to the kind of experiment: flow cytometry on cells. In general terms: Flow cytometry measures light scatter and fluorescence of single cells or particles in a stream.
Assay [2] addresses E1E2 S432A (H77 alanine-scanning library clone) (hepatitis C virus genotype 1a, strain H77). As to the kind of experiment: flow cytometry on cells.

B1: monoclonal antibody AR3C (antibody, V domains shown)
VH: VQLLEQSGAEVKKPGSSVKVSCETSGGTFDNYALNWVRQAPGQGLEWIGGVVPLFGTTRNAQKFQGRVTISDDKSTGTGHMELRSLRSEDTAVYYCVRSVTPRYCGGGFCYGEFDYWGQGTLVTVSS
VL: EIELTQSPATLSVSPGERATLSCRASQSVSSNLAWYQQKPGQAPRLLIYGASTRATGIPARFSGSGSGTEFTLTVSRLEPEDSAVYFCQQYYRSPLTFGGGTKVEIK
In the case of B1, the figures for the % reactivity (of wild type) in assay [1] and in assay [2] were 15% and 55%, respectively.
